“Also recorded” adds a separate entry of the source. Structures can show the parent of a compound that is named as a salt.
B1: Noggin: recombinant Noggin (1967-NG, R&D Systems); secreted protein that binds and antagonises bone morphogenetic proteins (BMPs) (protein, UniProt Q13253 28-232, looked up)
Noggin: QHYLHIRPAPSDNLPLVDLIEHPDPIFDPKEKDLNETLLRSLLGGHYDPGFMATSPPEDRPGGGGGAAGGAEDLAELDQLLRQRPSGAMPSEIKGLEFSEGLAQGKKQRLSKKLRRKLQMWLWSQTFCPVLYAWNDLGSRFWPRYVKVGSCFSKRSCSVPEGMVCKPSKSVHLTVLRWRCQRRGGQRCGWIPIQYPIISECKCSC

Columns and labels:
[1] = tested on: bone endothelial cells (BECs); assay: DFM treatment of cultured primary bone endothelial cells, qPCR mRNA analysis; assay type: cell-based, mouse; conditions: isolated primary bone endothelial cells; DFM 6.25 mg/ml of culture medium, 7 hrs; qPCR vs vehicle
Description: Tibiae and femurs from wild-type mice or mice expressing endothelial specific reporters (Flk1 GFP and Cdh5 mtmg mice) or wild-type mice were collected in sterile Ca^2+ and Mg^2+ free PBS, crushed with mortar and pestle, digested with Collagenase A (Sigma) to obtain a single cell suspension. ECs were then MACS sorted using endomucin antibody (cat. no. SC-65495) and Dynabeads sheep anti-Rat IgG (Invitrogen). Sorted ECs were then plated on dishes coated with fibronectin and cultured in endothelial cell growth medium (EBM-2, Clonetics; Lonza) supplemented with EGM-2 SingleQuots (CC-4176, Clonetic; Lonza). At first passage, cells were again MACS sorted with endomucin antibody and plated for culture. Cells were fed every third day and passaged upon confluency. […]
For the analysis of mRNA expression levels in type H or type L endothelium, CD31^hi/Emcn^hi and CD31^lo/Emcn^lo cells were sorted by FACS directly into the lysis buffer of the RNeasy Mini Kit (QIAGEN). […] Quantitative PCR (qPCR) was performed using TaqMan gene expression assays on ABI PRISM 7900HT Sequence Detection System. […]
For the analysis of mRNA expression levels, pure total bone endothelial cells were flow-sorted directly into the lysis buffer of RNeasy Mini Kit (QIAGEN). […] Quantitative PCR (qPCR) was performed using TaqMan gene expression assays on ABI PRISM 7900HT Sequence Detection System. […]

[2] = tested on: type H endothelium (CD31^hi/Emcn^hi vessels); assay: DFM treatment of aged mice, CD31/Osterix immunostaining of tibia sections; assay type: in vivo; conditions: aged 64 to 70 week-old mice; DFM i.p. every alternate day, 15 mg/ml per mouse, four weeks; vs vehicle control
From the text: 3-4 weeks old male C57BL/6J mice were used for experiments involving analysis of juvenile mice. For the characterization of changes during aging, 9-11 week-old and 60-70 week-old C57BL/6J males were used as adults and aged mice, respectively. All EC-specific gene deletions were generated using Cdh5(PAC)-CreERT2 transgenic mice, which were interbred with conditional mutants carrying loxP-flanked Hif1α alleles (Hif1α^lox/lox). For experiments, Cdh5(PAC)-CreERT2^T/+ Hif1α^lox/lox were mated with Hif1α^lox/lox females. To induce Cre activity and gene deletion, pups were injected with 500 μg tamoxifen (Sigma, T5648) intraperitoneally everyday from postnatal day (P) 10 to P14. Femurs and tibiae from Cdh5(PAC)-CreERT2^T/+ Hif1α^lox/lox (Hif1α^iΔEC) mutants and Cre-negative (Hif1α^lox/lox) controls were collected on P28 after euthanasia. The same methodology was followed for gene deletion experiments involving conditional Vhl mice. For the specific genetic labeling of metaphyseal vasculature Cdh5(PAC)-CreERT2^T/+ mice were mated with Rosa26-mG/mT reporter line. At P29, Cdh5(PAC)-CreERT2^T/+/R26-mG/mT^d/+ mice received a single dose of 50 μg tamoxifen and were analyzed either 24 hrs (1 day) later or 40 days later. […]
For phenotypic analysis, mutant and littermate control samples were always processed, sectioned, stained, imaged and analysed together at the same conditions and settings. […]

long bone = assay: DFM treatment of aged mice, qPCR of osteoprogenitor and osteoblast markers in long bone; assay type: in vivo, mouse; conditions: DFM-treated vs control
Description: For DFM treatment, freshly prepared deferoxamine mesylate (Sigma) in water was injected intraperitoneally every alternate day at the dose of 15 mg/ml per mouse over four weeks. For μ-CT analysis, this treatment was continued for five weeks. Animals in the control group were injected with same amount of sterile water.
For the analysis of mRNA expression levels in type H or type L endothelium, CD31^hi/Emcn^hi and CD31^lo/Emcn^lo cells were sorted by FACS directly into the lysis buffer of the RNeasy Mini Kit (QIAGEN). Total RNA was isolated according to manufacturer's protocol. A total of 100 ng RNA per reaction was used to generate cDNA with the iScript cDNA Synthesis System (Bio-Rad). Quantitative PCR (qPCR) was performed using TaqMan gene expression assays on ABI PRISM 7900HT Sequence Detection System. The FAM-conjugated TaqMan probes Tgfb1, Tgfb3, Fgf1, Pdgfa, Pdgfb and Kitl were used along with TaqMan Gene Expression Master Mix (Applied Biosystems). Gene expression assays were normalized to endogenous VIC-conjugated Actb probes as standard. For analysis of mRNA expression levels from whole bones, dissected femurs were immediately crushed finely, digested with collagenase, centrifuged to obtain a pellet, which was then lysed into lysis buffer of RNeasy Mini Kit (QIAGEN). […]

[3] = DFM treatment of aged mice, μ-CT analysis of tibia; assay type: in vivo, mouse; conditions: 6 weeks of DFM treatment, compared to aged control mice
Description: […] […] Animals in the control group were injected with same amount of sterile water.
Tibiae were collected, and the attached soft tissue was removed thoroughly and fixed in 4% paraformaldehyde. The fixed tibiae were analyzed using micro-CT (μCT 35) and software IPL V5.15 at Scanco Medical AG, Switzerland. A voxel size of 12 μm was chosen in all three spatial dimensions. For each sample, 148 from 232 slices were evaluated covering a total of 1.776 mm at a voltage of 70kVp, intensity 114 μA, integration time 1200 ms.

[4] = tested on: murine mesenchymal progenitors; assay: Osteoblastic differentiation of cultured murine mesenchymal progenitors with Noggin; assay type: cell-based, mouse; conditions: in vitro, recombinant Noggin
Rbpj^iΔEC mice [5] = assay: Systemic recombinant Noggin in Rbpj^iΔEC mice, immunostaining of tibia sections; assay type: in vivo, mouse
From the text: For Rbpj deletion in the postnatal vasculature, mice carrying loxP-flanked Rbpj gene (Rbpj^floxed) were interbred with mice expressing endothelial specific tamoxifen inducible CreERT2 i.e. Cdh5(PAC)-CreERT2. The males with genotype Rbpj^floxed/floxed Cdh5(PAC)-CreERT2^T/+ were interbred with Rbpj^floxed/floxed females to generate litters with Rbpj^floxed/floxed Cdh5(PAC)-CreERT2^T/+ (Rbpj^iΔEC) and Rbpj^floxed/floxed (control) genotypes. To induce Cre activity and gene deletion, all the litters were injected with 500 μg tamoxifen (Sigma, T5648) intraperitoneally everyday from P10 to P14. Femur and tibia were collected from these animals for analysis on P28 after euthanasia. The same methodology was followed for all gene deletion experiments of Fbxw7 ^iΔEC, Dll^iΔEC, Dll4^iΔEC, Jag1^iΔEC and Rbpj^iΔOB. For osteoblast specific loss of function experiments, Col1α1-CreERT2 mice (embryos purchased from Institut Clinique de la Souris, France) were interbred with Rbpj^floxed/floxed mice. Further, Rbpj floxed/floxed Col1a1-CreERT2^T/+ males were interbred with Rbpj^floxed/floxed females to generate litters with Rbpj^floxed/floxed Col1aCreERT2^T/+ (Rbpj^iΔOB) and Rbpj^floxed/floxed (control) genotypes.
(§1) For experiments involving Noggin treatment, both control and Rbpj^iΔEC mice were injected intraperitoneally once daily with 500 μg/kg recombinant Noggin (1967-NG, R&D Systems) dissolved in PBS in a volume of 50 μl per dose. Another set of control and Rbpj^iΔEC mice was injected with 50ul PBS for experimental control. All protein injections were done from P15 to P27, after tamoxifen treatment (P10-P14) before the day of analysis (P28).
Freshly dissected bone tissues collected from wild-type mice or from mutants and their control littermates were immediately fixed in ice-cold 4% paraformaldehyde solution for 4 hrs. Decalcification was carried out with 0.5M EDTA at 4° C. with constant shaking and decalcified bones were immersed into 20% sucrose and 2% polyvinylpyrrolidone (PVP) solution for 24 hr. Finally, the tissues were embedded and frozen in 8% gelatin (porcine) in presence of 20% sucrose and 2% PVP. For immunofluorescent stainings and morphological analyses, sections were generated using low-profile blades on a Leica CM3050 cryostat.
For phenotypic analysis, mutant and littermate control samples were always processed, sectioned, stained, imaged and analysed together at the same conditions and settings. For immunostaining, bone sections were air-dried, permeabilised for 10 min in 0.3% Triton X-100, blocked in 5% donkey serum at room temperature for 30 min, and probed with the primary antibodies diluted in 5% donkey serum in PBS for 2 hr at room temperature (RT) or overnight at 4° C.
Following are the details of primary antibodies used: Endomucin (sc-65495, Santa Cruz) used at 1:100 dilution; Pecam1 conjugated to Alexa fluor 488 (FAB3628G, R&D Systems) used at dilution 1:100; Pecam1 (553370, BD Pharmingen) used at 1:100 dilution; Osterix (sc-22536-R, Santa Cruz) used at dilution 1:200; Runx2 (MAB2006, R&D Systems) used at dilution 1:200; alpha SMA-Cy3 (C6198, Sigma) used at dilution 1:100; Hif1α (ab65979, Abcam) used at dilution 1:100; Collagen type 1 (AB675P; Millipore); Osteopontin (AF808, R&D Systems) used at dilution of 1:200, Mct4 (sc-50329 Santa Cruz) used at dilution of 1:100 and Glut1 (07-1401, Millipore) used at dilution of 1:100, NG2 Chondroitin Sulphate Proteoglycan (AB5320, Millipore) used at a dilution of 1:100.

Rbpj^iΔEC mice [6] = assay: Systemic recombinant Noggin in Rbpj^iΔEC mice, calcein double labelling; assay type: in vivo, mouse; conditions: Noggin 500 μg/kg i.p. once daily P15 to P27, 7 day interval
Description: as §1
Calcein double labeling was performed to calculate mineral apposition rate (MAR).
Mice were given intraperitoneal injections of 10 mg/kg calcein (Sigma, C0875) dissolved in 2% sodium bicarbonate solution at 10th day and 3rd day before euthanasia. Bones were fixed in 4% PFA, embedded in 8% gelatin and 2% PVP and cryosectioned. Single plane images were acquired from the sections using LSM 780 (Carl Zeiss). Mineral Apposition Rate (MAR) is the amount of bone formed during a particular time interval. It is calculated using the distance between the midpoints of two labels divided by time interval (7days).

[7] = Rbpj^iΔEC mice, Noggin 500 μg/kg i.p. once daily P15 to P27, analysis P28, vs saline-treated mutants

| Molecule | expression of growth factor mRNAs Pdgfa, Pdgfb, Fgf1, Tgfb1, Tgfb3 [1] | transcripts for CD31 and Endomucin [1] | Osterix-positive cells (osteoprogenitors) in association with type H vessels [2] | type H endothelium (CD31^hi/Emcn^hi vessels) in long bone [2] | expression levels of mRNAs Sp7, Bglap and lbsp in long bone (long bone) | bone mass (μ-CT) [3] | differentiation of primary mesenchymal cells into osteoblasts [4] | alkaline phosphatase (ALP) expression ([4]; 28 days of differentiation) | mineral nodule formation (Alizarin staining; osteoblast maturation) ([4]; 28 days of differentiation) | Endomucin staining intensity (Rbpj^iΔEC mice [5]; Noggin-treated Rbpj^iΔEC tibia sections) | abundance of Runx2+ early osteoprogenitors in metaphysis (Rbpj^iΔEC mice [5]; [7]) | number of Osterix+ (Osx+) cells in metaphysis (Rbpj^iΔEC mice [5]; [7]) | organization of the Rbpj^iΔEC metaphysis (Rbpj^iΔEC mice [5]; [7]) | organization of the Rbpj^iΔEC bone vasculature (endothelial column and arch structures) (Rbpj^iΔEC mice [5]; Rbpj^iΔEC mice, Noggin 500 μg/kg i.p. once daily P15 to P27, endomucin immunostaining) | trabecular bone formation (osteopontin immunostaining) (Rbpj^iΔEC mice [5]; Rbpj^iΔEC mice, recombinant Noggin vs Saline) | bone formation and mineral apposition rate (Rbpj^iΔEC mice [6]) | bone formation and mineral apposition rate (Rbpj^iΔEC mice [6]; listed as noggin) |
| --- | --- | --- | --- | --- | --- | --- | --- | --- | --- | --- | --- | --- | --- | --- | --- | --- | --- |
| CC(=O)N(O)CCCCCNC(=O)CCC(=O)N(O)CCCCCNC(=O)CCC(=O)N(O)CCCCCN [DFM, deferoxamine mesylate] | induction; also recorded: increase | up regulation | induces; also recorded: emergence | induces; also recorded: substantial expansion | significantly increased | significant increase |  |  |  |  |  |  |  |  |  |  |  |
| B1 |  |  |  |  |  |  | Inhibition; also recorded: inhibits | enhanced; also recorded: maintained even after 28 days | supressed; also recorded: delayed | increased | increases | reduced; also recorded: reduces the number of Osterix+ cells to control levels | restores | partially restored | partial restoration | restored; also recorded: significantly restores | restores |
